Laboratory results as given in the supplement of paper PMC10567573.

B1: TRIM39 (parent)
chain: CKACITRWWEDLERDFPCPVCRKT
B2: APBB1IP (parent)
chain: SQVSMWDQRWQDHQPLLPITDVP

Variants of: B1
Test: protein stability index of a GFP-peptide fusion (GPS, HEK-293T) (PSI 1-6); higher = more stable
Conditions: c terminus: a fixed tail appended
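Note: lentivirally expressed fusions sorted by FACS into six bins by GFP to DsRed ratio, PSI derived from sequencing read proportions per bin multiplied by bin number.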

Protein stability index: each site, then its substitutions
P17: E 4.41 | Q 4.2 | M 4.09 | A 3.55 | W 3.49 | D 3.5 | I 3.97 | V 4.35 | K 4.06 | S 4.2 | N 4.27 | H 4 | R 4.27 | Y 3.9 | G 3.46 | T 3.97 | F 4.25 | C 3.98 | L 3.85
E13: Y 3.79 | H 3.23 | W 2.92 | Q 3.94 | D 3.7 | P 3.61 | A 3.36 | V 2.98 | T 3.13 | S 3.63 | L 3.15 | M 2.95 | F 3.37 | R 3.46 | N 3.61 | K 2.98 | C 2.82 | I 3.08 | G 3.79
R14: S 4.4 | W 3.52 | D 3.99 | Q 3.78 | V 3.76 | F 3.69 | K 4.03 | T 4.63 | G 4.59 | Y 3.48 | P 3.79 | I 3.26 | H 4.23 | A 4.19 | L 3.4 | N 3.83 | M 4.27 | E 4.59 | C 4.09
K23: C 3.13 | A 3.9 | I 3.23 | T 3.31 | M 3.37 | P 3.41 | Q 4.58 | W 2.95 | V 3.42 | D 4.34 | L 2.96 | Y 2.29 | F 2.57 | R 3.25 | N 3.95 | E 4.33 | H 3.27 | S 3.63 | G 3.38
F16: Q 4.59 | P 3.76 | D 4.42 | M 3.99 | A 4.32 | I 3.78 | H 4.1 | E 4.66 | S 4.27 | L 2.96 | G 4.05 | R 4.2 | W 3.6 | Y 3.7 | T 4.37 | K 4.48 | V 4.04 | N 3.54 | C 2.32
P19: M 2.88 | A 3.15 | S 3.47 | L 2.65 | D 3.85 | T 3.35 | G 2.86 | E 3.55 | W 2.1 | C 2.26 | H 3.35 | N 3.29 | K 2.69 | Y 2.27 | V 2.94 | I 2.3 | Q 3.12 | F 1.95 | R 2.82
D15: C 2.09 | E 3.54 | H 2.72 | A 3.32 | Q 3.36 | G 3.31 | I 2.43 | F 3.24 | M 2.37 | W 2.72 | T 3.06 | K 2.98 | S 3.79 | L 2.26 | P 3.87 | R 2.46 | N 3.73 | V 3 | Y 2.84
C21: R 1.94 | A 2.18 | Y 3.73 | Q 2.48 | D 2.57 | W 2.18 | T 1.56 | L 1.62 | I 1.38 | G 1.4 | P 1.11 | H 2.63 | V 1.52 | K 2.19 | S 1.68 | M 1.56 | F 1.43 | E 1.32 | N 2.39
C18: F 2.34 | Y 2.02 | W 1.11 | N 1.24 | L 2.41 | T 1.39 | G 1.77 | M 1.42 | D 1.71 | V 1.28 | E 1.94 | K 1.38 | R 2.02 | H 1.54 | S 1.88 | I 1.79 | Q 2.53 | P 2.25
R22: V 3.04 | F 3.4 | T 3.72 | S 3.56 | N 4.22 | A 4.36 | D 3.75 | G 4.6 | C 3.74 | K 3.47 | M 3.72 | L 3.81 | Y 3.58 | P 3.15 | H 4.32 | Q 3.96 | I 3.62 | W 2.53 | E 4.37
T24: Y 3.74 | V 3.57 | L 3.78 | C 2.75 | K 3.83 | M 3.76 | R 3.67 | S 4.03 | E 3.98 | A 4.07 | D 4.83 | G 4.24 | Q 4.21 | I 3.57 | P 2.78 | H 3.58 | N 3.61 | W 3.02 | F 3.03
L12: N 4.24 | Q 3.65 | S 4.44 | E 3.29 | W 3.87 | R 3.86 | D 4.05 | G 4.11 | H 2.89 | A 4 | F 3.88 | K 4.19 | I 3.71 | M 4.14 | P 4.06 | C 3.88 | T 4.45 | Y 3.43 | V 3.63
V20: G 3.39 | T 4.4 | C 3.44 | I 4.22 | K 4.19 | E 4.77 | S 4.3 | D 4.55 | F 3.78 | M 3.37 | L 4.16 | Q 4.09 | H 3.88 | N 4.37 | R 3.99 | A 4.24 | W 3.56 | Y 3.73 | P 2.36
D11: R 3.4 | I 2.53 | F 3.5 | G 2.85 | L 3.57 | K 3.5 | E 3.68 | C 3.38 | A 3.71 | N 4.06 | M 3.9 | Q 3.48 | S 4.28 | V 3.79 | Y 3.31 | P 3.93 | H 3.52 | W 3.37 | T 3.58

Variants of: B2
Test: as above
Conditions: c terminus: native

Protein stability index: each site, then its substitutions
Q2: A 1.88 | G 2.07 | F 1.31 | K 2.57 | D 3.38 | S 1.88 | E 3.32 | N 2.6 | T 2.54 | R 1.66 | C 1.94 | Y 1.89 | M 3.18 | P 2.83 | L 1.5 | I 2.75 | W 1.72 | V 2.33 | H 2.23
V3: T 2.34 | A 3.18 | K 2.34 | R 2.43 | L 2.04 | N 2.49 | S 2.84 | P 2.8 | Q 3.47 | D 2.81 | I 2.23 | Y 2.27 | W 1.64 | M 2.83 | F 1.86 | H 3.28 | C 1.91 | E 2.9
S4: M 2.57 | A 2.84 | F 1.98 | P 2.73 | I 2.42 | Q 4.05 | K 2.15 | H 1.74 | E 3.8 | C 1.95 | T 2.23 | D 2.58 | L 2.02 | N 2.92
S1: H 2.46 | D 2.25 | R 2.23 | K 1.76 | T 2.04 | C 2.69 | I 1.56 | Q 2.36 | M 1.96 | E 3.87 | P 2.94 | L 1.36 | N 2.19 | F 1.92 | G 2.03 | W 3.14 | V 2.85 | Y 4
